Experiments:
Test in all cases: flow cytometry on transfected HEK293 cells (GFP+ gate), PE goat anti-huIgG4 [a]
[1] = molecular target: T1, CEACAM5 expressed on the surface of HEK293 cells (human, UniProt P06731 35-685)
T1 construct: whole, on cells; GFP-tagged clone; also called CEACAM5-GFP
T1 sequence (looked up): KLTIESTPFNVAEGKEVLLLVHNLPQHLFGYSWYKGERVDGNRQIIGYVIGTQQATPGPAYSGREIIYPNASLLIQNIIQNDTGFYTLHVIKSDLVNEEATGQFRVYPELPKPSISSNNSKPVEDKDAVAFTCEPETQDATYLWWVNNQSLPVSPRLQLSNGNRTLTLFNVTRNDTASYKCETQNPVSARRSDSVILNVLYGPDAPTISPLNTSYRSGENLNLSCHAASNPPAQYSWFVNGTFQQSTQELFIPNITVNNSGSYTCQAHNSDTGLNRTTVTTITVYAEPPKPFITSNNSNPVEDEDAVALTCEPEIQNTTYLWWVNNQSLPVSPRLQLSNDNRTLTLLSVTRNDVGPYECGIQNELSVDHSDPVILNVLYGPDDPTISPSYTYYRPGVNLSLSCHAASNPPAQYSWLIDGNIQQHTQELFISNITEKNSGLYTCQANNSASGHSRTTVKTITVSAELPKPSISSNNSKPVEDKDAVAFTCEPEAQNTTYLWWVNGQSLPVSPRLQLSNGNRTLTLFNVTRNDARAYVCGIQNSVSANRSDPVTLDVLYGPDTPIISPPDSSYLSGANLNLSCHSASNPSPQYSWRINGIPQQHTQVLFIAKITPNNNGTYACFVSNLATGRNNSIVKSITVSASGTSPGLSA
Method: (§1) HEK293 cells were added with 10 μg of each pEF1α-AcGFP-N1 vector (Clontech, Cat. No. 631973) as a control vector, CEACAM1, CEACAM3, CEACAM5, CEACAM6 and CEACAM8 plasmid vectors, followed by transfection under the condition of pulse voltage 1,100 V, pulse width 20 ms and pulse number 2. After 48 hours of transfection, GFP expression was confirmed by fluorescence microscopy. The cells were detached by treatment with 1 ml of TrypLE Express Solution (ThermoFisher Scientific; Cat. No. 12605010), resuspended in 9 ml of DMEM (Gibco, Cat. No. 11995-065) supplemented with 10% (v/v) FBS, and centrifuged at 1,200 rpm for 5 minutes, to remove the resulting supernatant.
(§2) After washing once with PBS, the cells were resuspended in a FACS buffer to obtain a concentration of 5×10⁵ cells/100 μl. Human Fc Block solution was added to the samples at 1 μl/sample, which were incubated at 4° C. for 10 minutes. The cells were treated with hulgG4 or one of the anti-CEACAM1 clones listed at 1 μg/5×10⁵ cells, which were incubated at 4° C. for 10 minutes. After washing with FACS buffer, the PE-labeled goat-anti-huIgG4 antibodies were diluted at a ratio of 1:200 in a FACS buffer, and added to the samples at 100 μl/sample, which were incubated at 4° C. for 30 minutes. The samples were filled with a FACS buffer up to 200 μl, and then centrifuged at 1,200 rpm for 5 minutes, to remove the resulting supernatant. The fixation buffer (300 μl) was added to resuspend the cells. The cells expressing GFP were selected in the FACS LSR-Fortessa device, and the expression of CEACAM members were evaluated respectively using the antibody specific to each CEACAM member (Table 3). Also, the binding of anti-CEACAM1 antibodies was evaluated by PE fluorescence channel and analyzed using the FlowJo software.

[2] = molecular target: T2, CEACAM3 expressed on the surface of HEK293 cells (human, UniProt P40198 35-252)
T2 construct: whole, on cells; GFP-tagged clone; also called CEACAM3-GFP
T2 sequence (looked up): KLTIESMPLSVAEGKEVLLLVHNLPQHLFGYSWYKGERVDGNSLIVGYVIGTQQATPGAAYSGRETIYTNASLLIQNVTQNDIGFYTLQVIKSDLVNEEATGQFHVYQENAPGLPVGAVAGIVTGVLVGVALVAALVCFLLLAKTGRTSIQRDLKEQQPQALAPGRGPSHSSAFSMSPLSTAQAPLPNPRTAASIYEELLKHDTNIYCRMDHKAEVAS
Method: as §1, §2

[3] = molecular target: T3, CEACAM6 expressed on the surface of HEK293 cells (human, UniProt P40199 35-320)
T3 construct: whole, on cells; GFP-tagged clone; also called CEACAM6-GFP
T3 sequence (looked up): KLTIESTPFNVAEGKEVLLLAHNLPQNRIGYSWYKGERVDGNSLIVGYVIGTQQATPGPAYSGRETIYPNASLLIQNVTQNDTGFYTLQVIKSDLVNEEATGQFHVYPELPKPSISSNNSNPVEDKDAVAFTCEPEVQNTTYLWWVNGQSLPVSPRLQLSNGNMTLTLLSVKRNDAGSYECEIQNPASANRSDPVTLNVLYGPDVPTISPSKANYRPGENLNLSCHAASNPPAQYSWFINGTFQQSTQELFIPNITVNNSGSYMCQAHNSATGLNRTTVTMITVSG
Method: as §1, §2

[4] = molecular target: T4, CEACAM8 expressed on the surface of HEK293 cells (human, UniProt P31997 35-320)
T4 construct: whole, on cells
T4 sequence (looked up): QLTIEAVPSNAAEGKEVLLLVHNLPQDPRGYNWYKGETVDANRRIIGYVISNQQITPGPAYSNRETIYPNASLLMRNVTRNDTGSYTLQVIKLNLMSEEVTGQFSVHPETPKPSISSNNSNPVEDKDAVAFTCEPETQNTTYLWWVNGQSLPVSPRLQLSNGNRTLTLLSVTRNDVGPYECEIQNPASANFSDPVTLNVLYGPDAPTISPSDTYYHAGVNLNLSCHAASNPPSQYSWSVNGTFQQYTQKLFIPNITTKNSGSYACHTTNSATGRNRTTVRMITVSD
Method: as §1, §2

Measured: binding result

B1: C25 (antibody, human IgG4 S228P, lambda, V domains shown)
VH: EVQLLESGGGLVQPGGSLRLSCAASGFTFSNYAMSWVRQAPGKGLEWVSVISHGGGSIYYADSVKGRLTISRDNSKNTLYLQMNSLRAEDTAVYYCARDPTKGYAPTFDYWGQGTLVTVSS
VL: QSVLTQPPSASGTPGQRVTISCSGSSSNIGNNYVSWYQQLPGTAPKLLIYADSKRPSGVPDRFSGSKSGTSASLAISGLRSEDEADYYCGAWDASLNGYVFGGGTKLTVLG
notes: Made in ExpiHEK293F cells, protein A purified. huIgG4 is the isotype control and anti-huIgG4 the detection reagent; the isotype is not otherwise stated; also called anti-CEACAM1 antibody C25
no binding: all assays above

— patent US20200109196A1 (MOGAM INSTITUTE FOR BIOMEDICAL RESEARCH, published 2020)
